Laboratory results from patent US8124835B2, “Acyl-coa-dependent diacylglycerol acyltransferas 1 (DGAT1) gene from Tropaeolum majus, protein encoded thereby and uses thereof” (National Research Council of Canada, priority 2006, dated 2012).

Assays:
[1] = tested on: Arabidopsis mutant line AS11; assay: Complementation of Arabidopsis AS11 DGAT mutant by seed-specific expression of TmDGAT1; type: in vivo, Arabidopsis thaliana; conditions: homozygous T3 seed lines, napin promoter
Description: FIG. 9. Complementation of A. thaliana AS11 mutant seed oil and fatty acid profile by expression of TmDGAT1. Transformation of Arabidopsis mutant line AS11 with the TmDGAT1 cDNA under the control of a napin promoter leads to a restoration of (A) fatty acid composition profile of the transgenic lines and (B) the WT level oil content. Total oil content (as percentage of mature seed dry weight) and fatty acid composition (% wt/wt) were determined on the seed oil extracted from T3 seeds of Arabidopsis pSE:WT and pSE:AS11 (empty plasmid) controls and from napin:TmDGAT1 AS11 transgenics lines.
The final binary vector (napin/DGAT/nos) was verified and electroporated into Agrobacterium tumefaciens cells strain GV3101 containing helper plasmid pMP90 (Koncz and Schell, 1986). Plasmid integrity was verified by DNA sequencing following its re-isolation from A. tumefaciens and transformation into E. coli. […]
The coding region of the TmDGAT1 (SEQ. ID. NO: 2) was cloned into a pSE vector behind the seed-specific napin promoter. […] At the same time several independent plasmid only control AS11 transgenic (pSE vector without DGAT1 insert) lines, as well as napin:TmDGAT1 in WT and pSE in WT transgenic lines were propagated and analyzed. […]

[2] = tested on: wild type (WT) Arabidopsis; assay: Over-expression of TmDGAT1 in wild-type Arabidopsis; type: in vivo, Arabidopsis thaliana
Text: FIG. 10. Over expression of the TmDGAT1 in Arabidopsis. Effect of transformation of Arabidopsis with the TmDGAT1 cDNA under the control of a napin promoter on (A) oil content and (B) average 1000-seed weight. Total oil content (as percentage of mature seed dry weight) and seed weight are shown for pSE (empty plasmid) in WT Arabidopsis (white bars), non-transformed WT Arabidopsis (black bars) and napin:TmDGAT1 transgenic homozygous T3 Arabidopsis lines (gray bars represent transgenic lines with a single insert and hatched bars represents transgenic lines with multiple inserts). (C) Fatty acid composition is shown for pSE (empty plasmid) in WT Arabidopsis and napin:TmDGAT1 transgenic homozygous T3 Arabidopsis lines. Homozygous T3 napin:TmDGAT1 lines were analyzed in triplicate, about 200 seeds per sample, accurately counted and weighed. For the plasmid only pSE in WT transgenic and non-transformed WT controls, ≧8 individual seed lots were similarly analyzed; the averaged values are presented.
FIG. 11. […]
Transgenic plants were selected and analyzed essentially as described previously (Jako et al., 2001; Mietkiewska et al., 2004). […]
Segregation analyses were performed to further confirm and select those transformants containing a single copy of the inserted fragment. […] Plants that contained the insertion (as shown by the presence of a PCR product from a napin/NOS junction using NN3 primer (5′-[…]-3′; SEQ ID NO: 22) and NN4 primer (5′-[…]-3′; SEQ ID NO: 23) and that carry a single locus insertion (as determined by a 3:1 segregation ratio of T2 seeds on kanamycin) were identified. Southern analyses were performed to further confirm and select those transformants containing single vs. multiple copies of the inserted fragment. DNA samples were digested with restriction enzymes KpnI (or BglII), resolved by electrophoresis on a 1% (w/v) agarose gel, and Southern blotting performed using a nylon filter (Hybond N+, Amersham) according to Sambrook et al. (1989). […]

B1: TmDGAT1: Tropaeolum majus acyl-CoA-dependent diacylglycerol acyltransferase 1, 518 amino acids (SEQ ID NO: 3), encoded by ORF SEQ ID NO: 2 (protein, listed as Tropaeolum majus)
chain: MAVAESSQNTTTMSGHGDSDLNNFRRRKPSSSVIEPSSSGFTSTNGVPATGHVAENRDQDRVGAMENATGSVNLIGNGGGVVIGNEEKQVGETDIRFTYRPSFPAHRRVRESPLSSDAIFKQSHAGLFNLCIVVLIAVNSRLIIENLMKYGWLIDTGFWFSSRSLGDWSIFMCCLTLPIFPLAAFIVEKLVQRNHISELVAVLLHVIVSTAAVLYPVIVILTCDSVYMSGVVLMLFGCIMWLKLVSYAHTSSDIRTLAKSGYKGDAHPNSTIVSCSYDVSLKSLAYFMVAPTLCYQPSYPRSSCIRKGWVVRQFVKLIVFIGLMGFIIEQYINPIVRNSKHPLKGDFLYAIERVLKLSVPNLYVWLCMFYSFFHLWLNILAELLRFGDREFYKDWWNAKTVAEYWKMWNMPVHRWMVRHLYFPCLRNGIPKEGAIIIAFLVSGAFHELCIAVPCHVFKLWAFIGIMFQVPLVLITNYLQEKFSNSMVGNMIFWFIFCILGQPMCVLLYYHDLINLKEK
[1]
  TAG levels of AS11 seed after expression: at least as high as that found in wild type Arabidopsis
  fatty acid composition of AS11 seed oil after expression: restoring the proportions of 18:1, 20:1 and 18:3 to give a WT profile
[2]; best line (TD/WT 13-6)
  net increase in oil content: 44%
[2]; best line (TD/WT 13-6), mid-developing seed
  increase in DGAT activity: two-fold
[2]; data not shown
  increase in total proportion of mono-unsaturated fatty acids (18:1+20:1) in seed TAGs: 2-3%
